Measured values taken from patent US20140370035A1 (BIOVERATIV THERAPEUTICS, published 2014).

How the values were obtained:
[1] = target: single-chain human FcRn (human) (UniProt P55899); experiment: SPR (Biacore T100), steady state, pH 6.0; single-chain FcRn amine-coupled to CM5 chip, analyte at 0.0625-2000 nM
[2] = target: single-chain murine FcRn (mouse) (UniProt Q61559); experiment: as above
[3] = target: single-chain canine FcRn (canine); experiment: as above
[4] = test system: T1, rBDD FVIII (recombinant B-domain deleted FVIII)
T1 sequence: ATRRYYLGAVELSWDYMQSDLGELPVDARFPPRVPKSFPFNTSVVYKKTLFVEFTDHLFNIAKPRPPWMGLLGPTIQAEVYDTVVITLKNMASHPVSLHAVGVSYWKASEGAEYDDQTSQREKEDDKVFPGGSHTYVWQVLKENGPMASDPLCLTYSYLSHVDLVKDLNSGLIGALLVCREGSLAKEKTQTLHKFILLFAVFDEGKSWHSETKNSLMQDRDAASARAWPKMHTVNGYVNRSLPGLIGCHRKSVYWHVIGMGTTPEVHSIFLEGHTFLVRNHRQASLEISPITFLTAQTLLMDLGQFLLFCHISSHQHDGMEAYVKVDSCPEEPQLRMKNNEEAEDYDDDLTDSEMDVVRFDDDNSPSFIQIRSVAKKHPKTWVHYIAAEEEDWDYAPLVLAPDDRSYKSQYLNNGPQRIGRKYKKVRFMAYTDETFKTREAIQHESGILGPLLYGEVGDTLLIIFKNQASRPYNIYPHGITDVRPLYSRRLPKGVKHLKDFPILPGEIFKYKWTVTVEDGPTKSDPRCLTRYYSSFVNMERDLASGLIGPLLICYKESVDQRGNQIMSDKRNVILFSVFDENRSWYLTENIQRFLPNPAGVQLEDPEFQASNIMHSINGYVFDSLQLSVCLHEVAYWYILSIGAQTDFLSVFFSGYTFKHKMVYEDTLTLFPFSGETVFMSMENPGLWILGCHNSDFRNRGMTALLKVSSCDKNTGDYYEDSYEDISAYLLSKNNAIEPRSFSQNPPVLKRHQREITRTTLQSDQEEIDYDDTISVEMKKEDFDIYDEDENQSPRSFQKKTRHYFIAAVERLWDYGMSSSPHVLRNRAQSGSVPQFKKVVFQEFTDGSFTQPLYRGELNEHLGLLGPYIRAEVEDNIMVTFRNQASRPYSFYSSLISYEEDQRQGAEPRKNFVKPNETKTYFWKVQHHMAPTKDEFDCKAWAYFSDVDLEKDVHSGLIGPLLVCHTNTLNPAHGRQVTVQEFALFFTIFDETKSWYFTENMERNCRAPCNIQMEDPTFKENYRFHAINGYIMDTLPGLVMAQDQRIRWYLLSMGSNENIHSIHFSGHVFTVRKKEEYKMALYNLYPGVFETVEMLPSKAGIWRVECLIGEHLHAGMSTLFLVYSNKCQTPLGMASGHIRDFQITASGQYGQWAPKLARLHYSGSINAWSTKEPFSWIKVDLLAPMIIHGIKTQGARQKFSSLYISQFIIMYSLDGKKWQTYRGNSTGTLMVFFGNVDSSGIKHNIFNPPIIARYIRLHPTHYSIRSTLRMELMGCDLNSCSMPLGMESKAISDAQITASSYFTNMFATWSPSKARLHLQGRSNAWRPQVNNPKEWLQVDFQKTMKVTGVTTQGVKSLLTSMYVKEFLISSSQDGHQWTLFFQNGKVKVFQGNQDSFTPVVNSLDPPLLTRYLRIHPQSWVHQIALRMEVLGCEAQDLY

[5] = target: T2, human von Willebrand factor (human, UniProt P04275 764-2813); experiment: SPR (BIAcore); FVIII protein as analyte, hvWf as ligand; N=5
T2 construct: also called hvWf; vWF
Protocol: (§1) Kinetic rate parameters of Kₐ (on-rate) and Kd (off-rate), and the affinity KD (Kd/Kₐ), were determined for each FVIII interaction under identical conditions.

[6] = target: T2, human von Willebrand factor; experiment: SPR (BIAcore); FVIII protein as analyte, hvWf as ligand; N=5; KD = off-rate/on-rate
Protocol: as §1

single-chain murine FcRn (mouse), sequence (Q61559 22-297 limits assumed, form in doubt, chain 1 of 2): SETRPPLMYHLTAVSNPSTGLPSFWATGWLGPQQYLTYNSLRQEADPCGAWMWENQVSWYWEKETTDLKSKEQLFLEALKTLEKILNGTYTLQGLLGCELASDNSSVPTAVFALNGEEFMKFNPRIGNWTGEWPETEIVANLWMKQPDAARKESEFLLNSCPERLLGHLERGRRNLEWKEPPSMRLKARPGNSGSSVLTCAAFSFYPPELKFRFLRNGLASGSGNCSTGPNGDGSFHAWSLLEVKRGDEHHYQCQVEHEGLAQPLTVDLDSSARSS
single-chain murine FcRn (mouse), sequence (chain, as listed by the source limits assumed, form in doubt, chain 2 of 2): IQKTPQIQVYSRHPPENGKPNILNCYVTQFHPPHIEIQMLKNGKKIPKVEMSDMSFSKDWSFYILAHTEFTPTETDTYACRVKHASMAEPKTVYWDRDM
single-chain human FcRn (human), sequence (P55899 24-297 limits assumed, form in doubt, chain 1 of 2): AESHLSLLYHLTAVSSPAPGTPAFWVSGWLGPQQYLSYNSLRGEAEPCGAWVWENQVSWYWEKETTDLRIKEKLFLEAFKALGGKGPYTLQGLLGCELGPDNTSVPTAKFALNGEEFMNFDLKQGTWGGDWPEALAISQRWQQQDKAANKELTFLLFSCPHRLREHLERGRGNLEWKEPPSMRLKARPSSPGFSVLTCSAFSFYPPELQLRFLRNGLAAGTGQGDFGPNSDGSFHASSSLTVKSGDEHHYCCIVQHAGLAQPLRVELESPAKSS
single-chain human FcRn (human), sequence (chain, as listed by the source limits assumed, form in doubt, chain 2 of 2): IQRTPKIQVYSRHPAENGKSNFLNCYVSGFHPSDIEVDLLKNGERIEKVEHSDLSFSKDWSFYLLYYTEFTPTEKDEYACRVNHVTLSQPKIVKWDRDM
single-chain canine FcRn (canine), sequence (chain, as listed by the source, form in doubt): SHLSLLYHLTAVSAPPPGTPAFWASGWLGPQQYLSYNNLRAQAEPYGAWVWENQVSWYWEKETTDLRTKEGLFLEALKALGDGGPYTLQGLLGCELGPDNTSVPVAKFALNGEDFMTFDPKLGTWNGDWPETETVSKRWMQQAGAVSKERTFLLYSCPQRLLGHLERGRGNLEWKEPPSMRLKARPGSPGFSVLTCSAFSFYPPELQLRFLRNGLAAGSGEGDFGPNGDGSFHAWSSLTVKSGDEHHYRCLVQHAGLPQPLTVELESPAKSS

Human IgG1 (antibody) gave an EC50 [1] of 558 nM, an EC50 [2] of less than 22.4 nM and an EC50 [3] of 196 nM.

For activated protein C, the “normalized FXa generation rate following cleavage by APC (thrombin 30' = 100); shown without a number” value [4] was “'BDD FVIII' is one of the two lighter bars of each group (alike in the scan); both lighter bars: about 8-16 without thrombin, 100 after thrombin 30', not lowered after a further 15' with APC (about 108-111), fallen to about 18-27 after 90' with APC”.

activated Factor IX was tested, and the Km (nM) (called Kd in the text): FXa generation rate against FIXa concentration, thrombin-activated FVIII protein on 25% PS-75% PC vesicles [4] was 2.5 nM and the Vmax (nM/min): FXa generation rate against FIXa concentration [4] was 4 nM/min.

B1: rBDD FVIII (recombinant B-domain deleted FVIII) (other)
chain: ATRRYYLGAVELSWDYMQSDLGELPVDARFPPRVPKSFPFNTSVVYKKTLFVEFTDHLFNIAKPRPPWMGLLGPTIQAEVYDTVVITLKNMASHPVSLHAVGVSYWKASEGAEYDDQTSQREKEDDKVFPGGSHTYVWQVLKENGPMASDPLCLTYSYLSHVDLVKDLNSGLIGALLVCREGSLAKEKTQTLHKFILLFAVFDEGKSWHSETKNSLMQDRDAASARAWPKMHTVNGYVNRSLPGLIGCHRKSVYWHVIGMGTTPEVHSIFLEGHTFLVRNHRQASLEISPITFLTAQTLLMDLGQFLLFCHISSHQHDGMEAYVKVDSCPEEPQLRMKNNEEAEDYDDDLTDSEMDVVRFDDDNSPSFIQIRSVAKKHPKTWVHYIAAEEEDWDYAPLVLAPDDRSYKSQYLNNGPQRIGRKYKKVRFMAYTDETFKTREAIQHESGILGPLLYGEVGDTLLIIFKNQASRPYNIYPHGITDVRPLYSRRLPKGVKHLKDFPILPGEIFKYKWTVTVEDGPTKSDPRCLTRYYSSFVNMERDLASGLIGPLLICYKESVDQRGNQIMSDKRNVILFSVFDENRSWYLTENIQRFLPNPAGVQLEDPEFQASNIMHSINGYVFDSLQLSVCLHEVAYWYILSIGAQTDFLSVFFSGYTFKHKMVYEDTLTLFPFSGETVFMSMENPGLWILGCHNSDFRNRGMTALLKVSSCDKNTGDYYEDSYEDISAYLLSKNNAIEPRSFSQNPPVLKRHQREITRTTLQSDQEEIDYDDTISVEMKKEDFDIYDEDENQSPRSFQKKTRHYFIAAVERLWDYGMSSSPHVLRNRAQSGSVPQFKKVVFQEFTDGSFTQPLYRGELNEHLGLLGPYIRAEVEDNIMVTFRNQASRPYSFYSSLISYEEDQRQGAEPRKNFVKPNETKTYFWKVQHHMAPTKDEFDCKAWAYFSDVDLEKDVHSGLIGPLLVCHTNTLNPAHGRQVTVQEFALFFTIFDETKSWYFTENMERNCRAPCNIQMEDPTFKENYRFHAINGYIMDTLPGLVMAQDQRIRWYLLSMGSNENIHSIHFSGHVFTVRKKEEYKMALYNLYPGVFETVEMLPSKAGIWRVECLIGEHLHAGMSTLFLVYSNKCQTPLGMASGHIRDFQITASGQYGQWAPKLARLHYSGSINAWSTKEPFSWIKVDLLAPMIIHGIKTQGARQKFSSLYISQFIIMYSLDGKKWQTYRGNSTGTLMVFFGNVDSSGIKHNIFNPPIIARYIRLHPTHYSIRSTLRMELMGCDLNSCSMPLGMESKAISDAQITASSYFTNMFATWSPSKARLHLQGRSNAWRPQVNNPKEWLQVDFQKTMKVTGVTTQGVKSLLTSMYVKEFLISSSQDGHQWTLFFQNGKVKVFQGNQDSFTPVVNSLDPPLLTRYLRIHPQSWVHQIALRMEVLGCEAQDLY
notes: The commercial product is largely processed into heavy and light chains; also called XYNTHA
B1 was tested, and the koff [5] was 0.00114 s⁻¹, the kon [5] was 1.37e+06 M⁻¹ s⁻¹ and the Kd [6] was 0.846 nM.
